Assay [1] concerns the target T1, human TIGIT (T-cell immunoreceptor with Ig and ITIM domains) (human, UniProt Q495A1 22-244).
T1 construct: also called hTIGIT
T1 sequence: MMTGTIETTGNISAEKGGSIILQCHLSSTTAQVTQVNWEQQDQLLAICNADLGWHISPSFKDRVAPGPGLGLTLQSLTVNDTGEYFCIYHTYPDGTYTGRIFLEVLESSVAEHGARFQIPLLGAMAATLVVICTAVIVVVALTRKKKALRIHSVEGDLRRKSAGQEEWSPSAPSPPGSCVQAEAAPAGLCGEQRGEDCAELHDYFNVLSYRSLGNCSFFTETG
In words: competition flow cytometry against 1 ug/mL hCD155-Fc-AlexaFluor647 on 293-hTIGIT cells. On the technique in general: A flow cytometer gives signals particle by particle.
Protocol: Samples were analyzed on a CytoFLEX flow cytometer. Median fluorescence intensity of the FSC/SSC gated population was determined for each antibody concentration. Percent blockade was calculated relative to the MFI of the no antibody control. NonLinear regression of Log(X) transformed data was performed in GraphPad Prism 6.

The target in assay [2] is T1, human TIGIT (T-cell immunoreceptor with …). In words: competition flow cytometry against hCD112-Fc-AlexaFluor647 on 293-hTIGIT cells.
The target is the same in assay [3]. In words: flow cytometry titration on HEK 293 cells expressing human TIGIT.
For assay [4] the target is unchanged. In words: flow cytometry, MFI on human TIGIT HEK 293 cells over parental HEK 293 cells.
Protocol: (§1) HEK 293 cells were engineered to stably express high levels of human, mouse or cynomolgus monkey TIGIT by lentiviral transduction. […] Cells were then washed twice with wash buffer and incubated with anti-human IgG conjugated to PE for 15 minutes on ice. Cells were then washed twice with wash buffer and analyzed by flow cytometry on a FACS Canto II instrument (BD Biosciences). Fold over background (FOB) was calculated as the median fluorescence intensity (MFI) of the anti-TIGIT clone bound to target-positive cells divided by the MFI of the anti-TIGIT clone bound to target-negative cells.
The target in assay [5] is T2, cynomolgus monkey TIGIT (cynomolgus monkey).
T2 construct: On HEK 293 cells (lentiviral transduction) and on cynomolgus peripheral blood T cells; also called cyno TIGIT
T2 sequence (chain, as listed by the source limits assumed): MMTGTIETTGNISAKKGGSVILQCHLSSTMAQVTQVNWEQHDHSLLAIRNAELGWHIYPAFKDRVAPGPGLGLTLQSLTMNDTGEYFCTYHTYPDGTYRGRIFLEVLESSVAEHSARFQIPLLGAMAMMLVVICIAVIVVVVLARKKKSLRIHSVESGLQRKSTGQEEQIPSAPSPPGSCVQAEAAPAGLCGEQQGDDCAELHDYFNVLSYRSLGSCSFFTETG
In words: flow cytometry, MFI on cyno TIGIT HEK 293 cells over parental HEK 293 cells.
Protocol: as §1

In assay [6] the target is T3, discontinuous epitope mimic CILQ2HLSSTTAQVTQCI2NADLGWHISPSFKC (Cys-acetamidomethyl (Cys-acm, printed as '2') at positions 5 and 19; Cys at positions 1, 17 and 33 used for the T3 CLIPS scaffold (as for Set 8)).
T3 peptide: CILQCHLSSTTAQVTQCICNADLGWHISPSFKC
In words: Pepscan-based peptide array ELISA, discontinuous epitope mimics.
Protocol: (§2) The binding of antibody to each of the synthesized peptides was tested in a pepscan-based ELISA. The peptide arrays were incubated with primary antibody solution (overnight at 4° C.). After washing, the peptide arrays were incubated with a 1/1000 dilution of a goat anti-human HRP conjugate (Southern Biotech) for one hour at 25° C. […] After one hour, the color development was measured. The color development was quantified with a charge coupled device (CCD)—camera and an image processing system.

The target in assay [7] is T4, discontinuous epitope mimic CKDRVAPGPGLGLTLQCI2NADLGWHISPSFKC (Cys-acetamidomethyl (Cys-acm, printed as '2') at position 19; Cys at positions 1, 17 and 33 used for the T3 CLIPS scaffold (as for Set 8)).
T4 peptide: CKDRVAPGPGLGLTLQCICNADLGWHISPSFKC
The description is as above.
Protocol: as §2

B1: Clone 13 (antibody, human IgG1, V domains shown)
VH: QVQLVQSGAEVKKPGSSVKVSCKASGGTFSSYAISWVRQAPGQGLEWMGSIIPIFGTANYAQKFQGRVTITADESTSTAYMELSSLRSEDTAVYYCARGPSEVGAILGYVWFDPWGQGTLVTVSS
VL: not shown
notes: Fully human IgG1 ('c13 hIgG1'); also called anti-TIGIT clone 13; c13 hIgG1
With B1, the “IC50 (read off the curve)” value was around 0.2 µg/mL in assay [1] and around 0.09 µg/mL in assay [2].

B2: mouse IgG2a chimera of anti-TIGIT clone 13 (antibody, V domains shown)
VH: QVQLVQSGAEVKKPGSSVKVSCKASGGTFSSYAISWVRQAPGQGLEWMGSIIPIFGTANYAQKFQGRVTITADESTSTAYMELSSLRSEDTAVYYCARGPSEVGAILGYVWFDPWGQGTLVTVSS
VL: not shown
notes: also called c13 mIgG2a
As usually defined, the EC50 is the concentration needed to bring the measured effect to its halfway point. B2 displayed an EC50 in assay [3] of 0.04 µg/mL. For the same molecule, the “IC50 (read off the curve)” value in assay [2] is around 0.06 µg/mL.

B3: Clone 13D (antibody, V domains shown)
VH: QVQLVQSGAEVKKPGSSVKVSCKASGGTFLSSAISWVRQAPGQGLEWMGSIIPYFGKANYAQKFQGRVTITADESTSTAYMELSSLRSEDTAVYYCARGPSEVKGILGYVWFDPWGQGTLVTVSS
VL: not shown
notes: IgG
Consider B3, for which the “FOB (Fold Over Background)” value was determined as 190 fold in assay [4] and 245 fold in assay [5].

B4: Clone 25 (antibody, V domains shown)
VH: QVQLVQSGAEVKKPGASVKVSCKASGYTFTSYAISWVRQAPGQGLEWMGWISAYNGNTNYAQKLQGRVTMTTDTSTSTAYMELRSLRSDDTAVYYCARDLSSFWSGDVLGAFDIWGQGTMVTVSS
VL: DIQMTQSPSSLSASVGDRVTITCRASQSISSYLNWYQQKPGKAPKLLIYAASSLQSGVPSRFSGSGSGTDFTLTISSLQPEDFATYYCQQSVPPRTFGGGTKVEIK
notes: Fully human IgG from a yeast presentation system; also called anti-TIGIT clone 25
Turning to B4, the binding result in assay [6] and in assay [7] was “binds” in each case.

The record behind these values is patent US20200040082A1 (Seagen, published 2020).
